According to PMC3649970, “A Unique Spumavirus Gag N-terminal Domain with Functional Properties of Orthoretroviral Matrix and Capsid” (PLoS Pathogens, 2013):

B1: PFV-Gag-NtD (amino terminal domain of Prototypic Foamy Virus Gag, residues 1-179) [Prototypic foamy virus (PFV)] / PFV Env leader peptide residues 1-20 [Prototypic foamy virus (PFV)] (parent)
chain 1: MASGSNVEEYELDVEALVVILRDRNIPRNPLHGEVIGLRLTEGWWGQIERFQMVRLILQDDDNEPLQRPRYEVIQRAVNPHTMFMISGPLAELQLAFQDLDLPEGPLRFGPLANGHYVQGDPYSSSYRPVTMAETAQMTRDELEDVLNTQSEIEIQMINLLELYEVETRALRRQLAERS
chain 2: MAPPMTLQQWIIWKKMNKAH

Variants of: B1
Test: sedimentation velocity analytical ultracentrifugation
Conditions: with PFV Env leader peptide residues 1-20 [Prototypic foamy virus (PFV)]; 75 µM equimolar mixtures of Gag-NtDs with Env(1-20); read off a plot

Question: Which Ka does the source give for chain 1 MASGSNVEEYELDSEALSVILRDRNIPRNPLHGEVIGLRLTEGWWGQIERFQMVRLILQDDDNEPLQRPRYEVIQRAVNPHTMFMISGPLAELQLAFQDLDLPEGPLRFGPLANGHYVQGDPYSSSYRPVTMAETAQMTRDELEDVLNTQSEIEIQMINLLELYEVETRALRRQLAERS [chain 1 V14S V18S] here?
Answer: Its Ka is 0.18 10^5 M^-1.

Question: With chain 1 MASGSNVEEYELDVEALSVISRDRNIPRNPLHGEVIGLRLTEGWWGQIERFQMVRLILQDDDNEPLQRPRYEVIQRAVNPHTMFMISGPLAELQLAFQDLDLPEGPLRFGPLANGHYVQGDPYSSSYRPVTMAETAQMTRDELEDVLNTQSEIEIQMINLLELYEVETRALRRQLAERS [chain 1 V18S L21S] as the variant, how does the Ka read?
Answer: The Ka was 0.16 10^5 M^-1.

Question: How did the Ka turn out when chain 1 MASGSNVEEYELDVEALVVISRDRNIPRNPLHGEVIGLRLTEGWWGQIERFQMVRLILQDDDNEPLQRPRYEVIQRAVNPHTMFMISGPLAELQLAFQDLDLPEGPLRFGPLANGHYVQGDPYSSSYRPVTMAETAQMTRDELEDVLNTQSEIEIQMINLLELYEVETRALRRQLAERS [chain 1 L21S] was run?
Answer: Its Ka is 0.29 10^5 M^-1.

Question: How did the Ka turn out when chain 1 MASGSNVEEYELDVEALVVINRDRNIPRNPLHGEVIGLRLTEGWWGQIERFQMVRLILQDDDNEPLQRPRYEVIQRAVNPHTMFMISGPLAELQLAFQDLDLPEGPLRFGPLANGHYVQGDPYSSSYRPVTMAETAQMTRDELEDVLNTQSEIEIQMINLLELYEVETRALRRQLAERS [chain 1 L21N] was run?
Answer: Its Ka is 0.3 10^5 M^-1.

Question: chain 1 MASGSNVEEYELDVEALVVILRDRNIPRQPLHGEVIGLRLTEGWWGQIERFQMVRLILQDDDNEPLQRPRYEVIQRAVNPHTMFMISGPLAELQLAFQDLDLPEGPLRFGPLANGHYVQGDPYSSSYRPVTMAETAQMTRDELEDVLNTQSEIEIQMINLLELYEVETRALRRQLAERS [chain 1 N29Q] was tested. Which Ka did it give?
Answer: Its Ka is 1.4 10^5 M^-1.

Question: For chain 1 MASGSNVEEYELDVEALSVILRDRNIPRNPLHGEVIGLRLTEGWWGQIERFQMVRLILQDDDNEPLQRPRYEVIQRAVNPHTMFMISGPLAELQLAFQDLDLPEGPLRFGPLANGHYVQGDPYSSSYRPVTMAETAQMTRDELEDVLNTQSEIEIQMINLLELYEVETRALRRQLAERS [chain 1 V18S], which Ka is on record?
Answer: The Ka was 0.6 10^5 M^-1.

Question: For chain 1 MASGSNVEEYELDVEASVVILRDRNIPRNPLHGEVIGLRLTEGWWGQIERFQMVRLILQDDDNEPLQRPRYEVIQRAVNPHTMFMISGPLAELQLAFQDLDLPEGPLRFGPLANGHYVQGDPYSSSYRPVTMAETAQMTRDELEDVLNTQSEIEIQMINLLELYEVETRALRRQLAERS [chain 1 L17S], which Ka is on record?
Answer: Its Ka is 0.71 10^5 M^-1.

Question: chain 1 MASGSNVEEYELDSEALVVILRDRNIPRNPLHGEVIGLRLTEGWWGQIERFQMVRLILQDDDNEPLQRPRYEVIQRAVNPHTMFMISGPLAELQLAFQDLDLPEGPLRFGPLANGHYVQGDPYSSSYRPVTMAETAQMTRDELEDVLNTQSEIEIQMINLLELYEVETRALRRQLAERS [chain 1 V14S] was tested. Which Ka did it give?
Answer: Its Ka is 0.51 10^5 M^-1.

Question: For chain 1 MASGSNVEEYELDSEALVVISRDRNIPRNPLHGEVIGLRLTEGWWGQIERFQMVRLILQDDDNEPLQRPRYEVIQRAVNPHTMFMISGPLAELQLAFQDLDLPEGPLRFGPLANGHYVQGDPYSSSYRPVTMAETAQMTRDELEDVLNTQSEIEIQMINLLELYEVETRALRRQLAERS [chain 1 V14S L21S], which Ka is on record?
Answer: Its Ka is 0.07 10^5 M^-1.
